We go through one protein from article PMC6506517, “Structure of Mycobacterium tuberculosis phosphatidylinositol phosphate synthase reveals mechanism of substrate binding and metal catalysis” (Communications Biology, 2019).

This data set concerns the molecule itself. Kind of data set: crystal structure.

B1: Mycobacterium tuberculosis phosphatidylinositol phosphate synthase (PgsA1) (enzyme)
chain: MSKLPFLSRAAFARITTPIARGLLRVGLTPDVVTILGTTASVAGALTLFPMGKLFAGACVVWFFVLFDMLDGAMARERGGGTRFGAVLDATCDRISDGAVFCGLLWWIAFHMRDRPLVIATLICLVTSQVISYIKARAEASGLRGDGGFIERPERLIIVLTGAGVSDFPFVPWPPALSVGMWLLAVASVITCVQRLHTVWTSPGAIDRMAIPGKGDRENLYFQ
notes: also called M. tuberculosis PgsA1; Rv2612c
In the case of B1, the binding result is recorded as “binds”.
